Tests used:
[1] = molecular target: T1, Shs1(E344C)-capped, otherwise Cys-less septin hetero-octamer (Shs1-Cdc12-Cdc3-Cdc10-Cdc10-Cdc3-Cdc12-Shs1) (S. cerevisiae, UniProt Q07657 1-551; P32468 1-407; P32457 1-520; P25342 1-322, C29V | C148S | E344C | C40A | C278S | C124V | C253V | C279V | C266S, Alexa Fluor 555 maleimide (donor) or Alexa Fluor 647 maleimide (acceptor) on C344 (E344C)); test: FRET or BRET; 25 nM donor (AF555)-labelled octamers titrated with acceptor (AF647)-labelled octamers, serial dilutions from 100 nM; 45 mM KCl, 50 mM Tris-HCl pH 8.0; room temperature, 1 h equilibration; triplicate; PCA and curve fit; apparent Kd of end-to-end association of rods; conditions: both partners purified
T1 construct: Cdc12, S. cerevisiae mitotic septin, Cys-less variant; Cdc3, S. cerevisiae mitotic septin, Cys-less variant; Cdc10, S. cerevisiae mitotic septin, Cys-less variant; Donor- and acceptor-labelled preparations are written as this one molecule; also called Shs1^AF555; Shs1^AF647; source: E. coli NiCo21 (DE3), subunits co-expressed, purified (IMAC, chitin-agarose flow-through, SEC), maleimide …
T1 sequence (Q07657 whole entry C29V/C148S/E344C, one chain of several): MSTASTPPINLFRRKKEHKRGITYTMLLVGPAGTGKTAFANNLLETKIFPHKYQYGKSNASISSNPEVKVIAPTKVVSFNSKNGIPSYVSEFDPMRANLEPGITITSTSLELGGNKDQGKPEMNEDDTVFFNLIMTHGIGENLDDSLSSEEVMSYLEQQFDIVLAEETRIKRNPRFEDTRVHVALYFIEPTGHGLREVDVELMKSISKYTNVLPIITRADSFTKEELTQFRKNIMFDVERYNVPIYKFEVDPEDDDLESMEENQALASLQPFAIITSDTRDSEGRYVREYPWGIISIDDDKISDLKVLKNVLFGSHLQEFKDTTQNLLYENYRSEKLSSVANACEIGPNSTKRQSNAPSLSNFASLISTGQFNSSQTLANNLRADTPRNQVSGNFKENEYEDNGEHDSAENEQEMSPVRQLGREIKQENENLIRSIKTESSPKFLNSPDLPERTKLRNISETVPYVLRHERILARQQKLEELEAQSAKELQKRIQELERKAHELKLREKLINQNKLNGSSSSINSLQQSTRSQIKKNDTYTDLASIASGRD

[2] = molecular target: the molecule itself; test: as above
[3] = molecular target: T1, Shs1(E344C)-capped, otherwise Cys-less …; test: FRET or BRET; as a1 but 35 nM donor (AF555)-labelled octamers; 45 mM KCl, 50 mM Tris-HCl pH 8.0; room temperature; apparent Kd; conditions: both partners purified
[4] = molecular target: the molecule itself; test: as above
[5] = molecular target: the molecule itself; test: FRET or BRET; standard titrations of donor-labelled rods with acceptor-labelled rods in buffers of increasing KCl concentration (corrected FRET method); result at high ionic strength; apparent Kd
[6] = molecular target: T2, Shs1(Δ2–18/Δα0 E344C)-capped, otherwise Cys-less septin hetero-octamer (S. cerevisiae, UniProt Q07657 1-551; P32468 1-407; P32457 1-520; P25342 1-322, Δ2–18 | C29V | C148S | E344C | C40A | C278S | C124V | C253V | C279V | C266S, Alexa Fluor 555 maleimide (donor) on C344 (E344C)); test: FRET or BRET; 25 nM donor (AF555)-labelled octamers titrated with acceptor (AF647)-labelled octamers, serial dilutions from 100 nM; 45 mM KCl, 50 mM Tris-HCl pH 8.0; room temperature, 1 h equilibration; triplicate; PCA and curve fit; apparent Kd of end-to-end association of rods; conditions: both partners purified
T2 construct: Cdc12, S. cerevisiae mitotic septin, Cys-less variant; Cdc3, S. cerevisiae mitotic septin, Cys-less variant; Cdc10, S. cerevisiae mitotic septin, Cys-less variant; also called Shs1 Δα0^AF555; Shs1(Δα0) complexes; source: E. coli NiCo21 (DE3), subunits co-expressed, purified (IMAC, chitin-agarose flow-through, SEC), maleimide dye-labelled; not shown: His6, N-terminal, kept; copies: 2 + 2 + 2 + 2
T2 sequence (Q07657 other isoform, or with tags, fused parts or gaps with the stated changes): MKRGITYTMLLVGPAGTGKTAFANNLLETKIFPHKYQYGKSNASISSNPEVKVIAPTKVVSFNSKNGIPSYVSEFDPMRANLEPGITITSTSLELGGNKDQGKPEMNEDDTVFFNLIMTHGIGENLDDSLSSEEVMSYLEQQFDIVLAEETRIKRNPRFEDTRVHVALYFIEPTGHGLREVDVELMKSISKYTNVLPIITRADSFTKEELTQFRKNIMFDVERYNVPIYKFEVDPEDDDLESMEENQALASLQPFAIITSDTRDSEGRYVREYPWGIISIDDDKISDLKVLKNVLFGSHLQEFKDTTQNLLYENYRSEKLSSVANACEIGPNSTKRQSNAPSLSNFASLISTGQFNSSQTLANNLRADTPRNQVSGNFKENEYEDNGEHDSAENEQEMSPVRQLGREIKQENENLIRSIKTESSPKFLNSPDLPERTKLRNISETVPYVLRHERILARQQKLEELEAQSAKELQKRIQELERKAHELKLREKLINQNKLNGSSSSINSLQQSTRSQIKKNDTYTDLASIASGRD

[7] = molecular target: T1, Shs1(E344C)-capped, otherwise Cys-less …; test: FRET or BRET; equimolar (1:1) donor- and acceptor-labelled octamers while varying ionic strength (KCl); PCA; EC50 of ionic strength and apparent Hill coefficient; conditions: both partners purified
[8] = molecular target: the molecule itself; test: as above
[9] = molecular target: T1, Shs1(E344C)-capped, otherwise Cys-less …; test: FRET or BRET; as a1 but 50 nM donor (AF555)-labelled octamers; 45 mM KCl, 50 mM Tris-HCl pH 8.0; room temperature; apparent Kd; conditions: both partners purified
[10] = molecular target: the molecule itself; test: as above

- Kd [1]: 0.0108 µM
- Kd [3]: 0.0213 µM
- Kd [6]: 0.0406 µM
- ionic strength (KCl) at EC50 of the FRET signal [7]: 198000 µM
- Kd [9]: 0.0275 µM
B1: Cdc11(E294C)-capped, otherwise Cys-less septin hetero-octamer (Cdc11-Cdc12-Cdc3-Cdc10-Cdc10-Cdc3-Cdc12-Cdc11) (complex, S. cerevisiae)
chain 1: MSGIIDASSALRKRKHLKRGITFTVMIVGQSGSGRSTFINTLFGQQVVDTSTTILLPTDTSTEIDLQLREETVELEDDEGVKIQLNIIDTPGFGDSLDNSPSFEIISDYIRHQYDEILLEESRVRRNPRFKDGRVHAALYLINPTGHGLKEIDVEFIRQLGSLVNIIPVISKSDSLTRDELKLNKKLIMEDIDRWNLPIYNFPFDEDEISDEDYETNMYLRTLLPFAIIGSNEVYEMGGDVGTIRGRKYPWGILDVEDSSISDFVILRNALLISHLHDLKNYTHEILYERYRTCALSGESVAAESIRPNLTKLNGSSSSSTTTRRNTNPFKQSNNINNDVLNPASDMHGQSTGENNETYMTREEQIRLEEERLKAFEERVQQELLLKRQELLQREKELREIEARLEKEAKIKQEE
chain 2: MSAATATAAPVPPPVGISNLPNQRYKIVNEEGGTFTVMLAGESGLGKTTFINTLFQTVLKRADGQQHRQEPIRKTVEIDITRALLEEKHFELRVNVIDTPGFGDNVNNNKAWQPLVDFIDDQHDSYMRQEQQPYRTKKFDLRVHAVLYFIRPTGHGLKPIDIETMKRLSTRANLIPVIAKADTLTAQELQQFKSRIRQVIEAQEIRIFTPPLDADSKEDAKSGSNPDSAAVEHARQLIEAMPFAIVGSEKKFDNGQGTQVVARKYPWGLVEIENDSHSDFRKLRALLLRTYLLDLISTTQEMHYETYRRLRLEGHENTGEGNEDFTLPAIAPARKLSHNPRYKEEENALKKYFTDQVKAEEQRFRQWEQNIVNERIRLNGDLEEIQGKVKKLEEQVKSLQVKKSHLK
chain 3: MSLKEEQVSIKQDPEQEERQHDQFNDVQIKQESQDHDGVDSQYTNGTQNDDSERFEAAESDVKVEPGLGMGITSSQSEKGQVLPDQPEIKFIRRQINGYVGFANLPKQWHRRSIKNGFSFNLLVVGPDGIGKTTLMKTLFNNDDIEANLVKDYEEELANDQEEEEGQGEGHENQSQEQRHKVKIKSYESVIEENGVKLNLNVIDTEGFGDFLNNDQKSWDPIIKEIDSRFDQYLDAENKINRHSINDKRIHAVLYFIEPTGHYLKPLDLKFMQSVYEKVNLIPVIAKSDILTDEEILSFKKTIMNQLIQSNIELFKPPIYSNDDAENSHLSERLFSSLPYAVIGSNDIVENYSGNQVRGRSYPWGVIEVDNDNHSDFNLLKNLLIKQFMEELKERTSKILYENYRSSKLAKLGIKQDNSVFKEFDPISKQQEEKTLHEAKLAKLEIEMKTVFQQKVSEKEKKLQKSETELFARHKEMKEKLTKQLKALEDKKKQLELSINSASPNVNHSPVPTKKKGFLR
chain 4: MDPLSSVQPASYVGFDTITNQIEHRLLKKGFQFNIMVVGQSGLGKSTLINTLFASHLIDSATGDDISALPVTKTTEMKISTHTLVEDRVRLNINVIDTPGFGDFIDNSKAWEPIVKYIKEQHSQYLRKELTAQRERFITDTRVHAILYFLQPNGKELSRLDVEALKRLTEIANVIPVIGKSDTLTLDERTEFRELIQNEFEKYNFKIYPYDSEELTDEELELNRSVRSIIPFAVVGSENEIEINGETFRGRKTRWSAINVEDINQSDFVYLREFLIRTHLQDLIETTSYIHYEGFRARQLIALKENANSRSSAHMSSNAIQR
modifications: Alexa Fluor 555 maleimide (donor) or Alexa Fluor 647 maleimide (acceptor) on C294 (E294C); 0.7-0.8 dye molecules per subunit
notes: intact CTE (residues 303-415) restored; Cdc12, S. cerevisiae mitotic septin, Cys-less variant; Cdc3, S. cerevisiae mitotic septin, Cys-less variant; Cdc10, S. cerevisiae mitotic septin, Cys-less variant; The same preparation was labelled separately with donor (AF555) or acceptor (AF647); both are written as this one molecule; also called Cdc11^AF555; Cdc11^AF647; source: E. coli NiCo21 (DE3), …
- Kd [2]: 0.0202 µM
- Kd [4]: 0.0345 µM
- Kd [5]: > 0.1 µM
- ionic strength (KCl) at EC50 of the FRET signal [8]: 181000 µM
- Kd [10]: 0.0388 µM

— PMC4653696 (The Journal of Biological Chemistry, 2015)
